# Measurements as given in publication PMC6248932.
# What was measured:
# [1] = molecular target: BG505 SOSIP.664 gp140 trimer (HIV-1 (clade A, strain BG505)) (UniProt Q2N0S6); assay: SEC
# [2] = molecular target: BG505 SOSIP.664 gp140 trimer (HIV-1 (clade A, strain BG505)) (UniProt Q2N0S6); assay: native gel or EMSA
# [3] = molecular target: BG505 UFO gp140 trimer (HIV-1 (clade A, strain BG505)); assay: SEC
# [4] = molecular target: BG505 UFO gp140 trimer (HIV-1 (clade A, strain BG505)); assay: native gel or EMSA
# [5] = molecular target: clade B tier 3 H078.14 UFO-BG gp140 trimer (HIV-1 (clade B, strain H078.14) | HIV-1 (clade A, strain BG505)); assay: crystal structure
substance,measurement,setting,value
BG505 SOSIP.664 gp140 trimer (from UniProt Q2N0S6 31-505) (complex),stoichiometry N,[1],3
same,stoichiometry N,[2],3
BG505 UFO gp140 trimer,stoichiometry N,[3],3
same,stoichiometry N,[4],3
clade B tier 3 H078.14 UFO-BG gp140 trimer,stoichiometry N,[5],3
